Measurements published in US20050255113A1, “Methods and compositions for inhibiting polypeptide accumulation associated with neurological disorders” (New York State Department of Health and Abgenix, Inc., priority 1999, published 2005).

What was measured:
[1] = tested on: DRPLA polypeptide (GFP-DRPLA-35Q, GFP-DRPLA-Q81); test: Intrabody retargeting specificity in COS-7 cells with DRPLA polypeptide (immunofluorescence); assay type: cell-based; conditions: COS-7 co-transfection
Procedure: COS 7 cells were grown on cover glass in 6-well plates (10^5 cells/well) and co-transfected at a ratio of 3:1 (sFv to target) with plasmids containing either N-HD-C4 sFv or a negative control sFv (containing an HA tag and SV40 nuclear localization sequence (NLS)) and plasmids containing GFP-targeted fusion proteins using 5 μl SuperFect transfection reagent (QIAGEN). At 24 hours post-transfection, cells were prepared for immunofluorescence as follows: cells were fixed with 4% paraformaldehyde and permeabilized with 0.2% triton-X100. To prevent non-specific binding of secondary antibodies, cells were blocked with 10% normal goat serum in 3% BSA.
The model DRPLA target polypeptide was fused to a GFP domain to track the expression and intracellular localization of the target polypeptide in the transfected cells. In addition, two different intrabodies, one specific to huntingtin, and a second intrabody specific to an unrelated polypeptide, were independently cotransfected with the DRPLA target polypeptide.
FIGS. 13A-F show stably transfected COS-7 cells expressing α-Nt-HD-C4 sFv-HA-NLS which were further transfected with plasmids encoding either the model altered huntingtin polypeptide with 104 glutamine repeats (FIGS. 13B, D, F) or the model altered DRPLA polypeptide with 81 glutamine repeats (FIGS. 13A, C, E). […]

[2] = tested on: HD-polyQ72-GFP or HD-Q104-GFP in BHK cells; test: Double label immunofluorescence of BHK cells co-transfected with C4 sFv and HD-polyQ-GFP; assay type: cell-based; conditions: 5:1 C4:HD-polyQ-GFP
Procedure: Some aggregates are found in 104Q co-transfections (never in 25Q), often in cells not expressing C4 (arrowheads), but in some dually-transfected cells as well (arrow). […] Cell lysates were collected from 5:1 co-transfections (sFv:HD-72Q-GFP) in duplicate at 24 hours (prior to prominent aggregate formation and loss of HD-72Q-GFP to the insoluble compartment) and subjected to SDS-PAGE. The membrane was probed with 1:1000 […] primary antibody (Quantum), stripped and reprobed with 1:500 anti-actin antibody (Sigma). HD-72Q-GFP bands were of similar intensity after detection by HRP-conjugated secondary antibody and chemiluminescence.
The typical intrabody constructs were fused to a C-terminal hemagglutinin (HA) peptide tag to facilitate immunodetection of the protein, while keeping the protein localized to the cytosol. […] The diffuse labeling was also characteristic of the normal length (25Q) construct, with or without intrabody co-transfection (FIG. 15).

Sequence of DRPLA polypeptide (GFP-DRPLA-35Q, GFP-DRPLA-Q81) (P54259 with tags, fused parts or gaps DUP487-502): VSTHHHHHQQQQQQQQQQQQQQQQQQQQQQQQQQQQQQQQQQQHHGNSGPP

B1: C4 sFv: human single-chain Fv intrabody from phage display, specific for the 17 N-terminal residues of huntingtin; SEQ ID NO: 6 (protein)
scFv: QVQLQESGGGLVQPGGSLRLSCAASGFTFSSYSMSWVRQAPGKGLEWVAVISYDGSNKYYADSVKGRFTISRDNSKNTLYLQMNSLRAEDTAVYYCARDRYFDLWGRGTLVTVSSGGGGSGGGGSGGGGSQSALTQPASVSGSPGQSITISCTGTSSDIGAYNYVSWYQQYPGKAPKLLIYDVSNRPSGISNRFSGSKSGDTASLTISGLQAEDEADYYCSSFANSGPLFGGGTKVTVL
cellular distribution of GFP-DRPLA-35Q [1]: no change in the cellular distribution of DRPLA polypeptide | GFP label and aggregates in dual transfectants [2]: substantial diffuse GFP label, but with only an occasional fluorescent aggregate
